Experimental data published in patent US20140227729.

Key:
[1] = biological target: T1, Ndm, two-subunit N-demethylase component purified from Pseudomonas putida CBB5 (UniProt H9N289)
T1 sequence 1: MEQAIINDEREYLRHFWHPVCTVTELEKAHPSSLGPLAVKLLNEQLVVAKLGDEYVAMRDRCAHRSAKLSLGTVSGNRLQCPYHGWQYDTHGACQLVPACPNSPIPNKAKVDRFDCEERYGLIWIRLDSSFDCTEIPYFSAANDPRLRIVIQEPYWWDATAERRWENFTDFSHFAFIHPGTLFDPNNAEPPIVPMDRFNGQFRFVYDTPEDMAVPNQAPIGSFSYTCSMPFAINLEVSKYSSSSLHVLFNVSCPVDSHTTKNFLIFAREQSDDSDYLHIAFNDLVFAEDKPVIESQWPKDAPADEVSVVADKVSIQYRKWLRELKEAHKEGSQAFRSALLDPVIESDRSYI
T1 sequence 2: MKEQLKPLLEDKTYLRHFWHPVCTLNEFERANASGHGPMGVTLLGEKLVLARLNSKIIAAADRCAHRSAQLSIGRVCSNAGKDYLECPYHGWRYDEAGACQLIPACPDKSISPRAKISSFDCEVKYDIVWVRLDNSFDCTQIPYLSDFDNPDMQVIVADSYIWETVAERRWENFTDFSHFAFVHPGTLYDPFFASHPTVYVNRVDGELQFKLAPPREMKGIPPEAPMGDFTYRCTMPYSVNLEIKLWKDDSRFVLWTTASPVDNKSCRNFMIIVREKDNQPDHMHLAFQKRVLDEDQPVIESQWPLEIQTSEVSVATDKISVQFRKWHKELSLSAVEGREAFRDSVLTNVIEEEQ

[2] = biological target: T2, Ndm, two-subunit N-demethylase component purified from Pseudomonas putida CBB5, H9N289
T2 chain 1: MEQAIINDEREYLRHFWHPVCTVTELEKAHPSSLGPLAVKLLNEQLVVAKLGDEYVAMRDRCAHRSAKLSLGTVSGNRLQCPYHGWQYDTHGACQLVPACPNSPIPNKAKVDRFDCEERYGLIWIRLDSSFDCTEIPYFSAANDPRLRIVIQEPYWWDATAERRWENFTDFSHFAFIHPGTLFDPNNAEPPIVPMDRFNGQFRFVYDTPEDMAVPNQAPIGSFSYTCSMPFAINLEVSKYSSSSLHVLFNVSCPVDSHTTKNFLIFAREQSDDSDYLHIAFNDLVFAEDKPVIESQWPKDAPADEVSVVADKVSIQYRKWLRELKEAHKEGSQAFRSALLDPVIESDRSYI
T2 chain 2: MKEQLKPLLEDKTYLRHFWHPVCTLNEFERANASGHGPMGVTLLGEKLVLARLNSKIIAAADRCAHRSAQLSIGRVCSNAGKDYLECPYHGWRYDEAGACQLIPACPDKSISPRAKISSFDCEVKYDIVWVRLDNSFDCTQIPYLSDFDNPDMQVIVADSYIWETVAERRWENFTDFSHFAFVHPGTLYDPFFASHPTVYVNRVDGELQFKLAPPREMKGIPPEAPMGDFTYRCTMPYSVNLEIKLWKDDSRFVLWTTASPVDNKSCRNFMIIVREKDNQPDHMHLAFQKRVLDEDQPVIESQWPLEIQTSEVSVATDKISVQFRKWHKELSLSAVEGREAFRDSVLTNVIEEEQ

NdmA-His6, H9N289 = biological target: T3, NdmA-His6, H9N289
T3 chain: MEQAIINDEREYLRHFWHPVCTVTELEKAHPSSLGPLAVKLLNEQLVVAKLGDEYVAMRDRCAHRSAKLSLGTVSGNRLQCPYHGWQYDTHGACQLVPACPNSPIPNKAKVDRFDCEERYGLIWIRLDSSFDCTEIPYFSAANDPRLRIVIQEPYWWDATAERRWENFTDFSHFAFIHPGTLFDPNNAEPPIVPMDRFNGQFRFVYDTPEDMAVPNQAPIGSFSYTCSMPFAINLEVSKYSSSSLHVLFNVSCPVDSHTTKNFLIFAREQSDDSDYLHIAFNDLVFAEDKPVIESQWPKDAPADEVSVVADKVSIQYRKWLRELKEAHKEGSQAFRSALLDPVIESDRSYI

NdmB-His6, H9N290 = biological target: T4, NdmB-His6, H9N290
T4 chain: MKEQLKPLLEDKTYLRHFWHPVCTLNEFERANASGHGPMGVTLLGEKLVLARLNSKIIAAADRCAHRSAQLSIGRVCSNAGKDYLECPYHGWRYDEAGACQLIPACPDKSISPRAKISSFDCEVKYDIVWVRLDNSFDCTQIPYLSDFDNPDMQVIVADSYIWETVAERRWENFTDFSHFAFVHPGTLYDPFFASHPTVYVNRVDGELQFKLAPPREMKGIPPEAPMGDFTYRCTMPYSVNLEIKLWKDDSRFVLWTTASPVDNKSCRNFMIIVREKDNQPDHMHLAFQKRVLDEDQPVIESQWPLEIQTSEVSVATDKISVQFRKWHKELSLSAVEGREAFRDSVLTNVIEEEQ

Ccr, reductase component with cytochrome c reductase activity (partially purified fraction from Pseudomonas putida CBB5)
N-demethylase activity [1]: No N-demethylase activity was observed when purified Ndm was assayed without the Ccr fraction

B1: Reductase of Pseudomonas sp. 9816 naphthalene dioxygenase (protein)
chain: MELLIQPNNRIIPFSAGANLLEVLRENGVAISYSCLSGRCGTCRCRVIDGSVIDSGAENGQSNLTDKQYVLACQSVLTGNCAIEVPEADEIVTHPARIIKGTVVAVESPTHDIRRLRVRLSKPFEFSPGQYATLQFSPEHARPYSMAGLPDDQEMEFHIRKVPGGRVTEYVFEHVREGTSIKLSGPLGTAYLRQKHTGPMLCVGGGTGLAPVLSIVRGALKSGMTNPILLYFGVRSQQDLYDAERLHKLAADHPQLTVHTVIATGPINEGQRAGLITDVIEKDILSLAGWRAYLCGAPAMVEALCTVTKHLGISPEHIYADAFYPGGI
N-demethylase activity [2]: Ndm did not function in the presence of the reductase and ferredoxin components of Pseudomonas sp. 9816 naphthalene dioxygenase

B2: Spinach ferredoxin reductase (protein)
chain: QIASDVEAPPPAPAKVEKHSKKMEEGITVNKFKPKTPYVGRCLLNTKITGDDAPGETWHMVFSHEGEIPYREGQSVGVIPDGEDKNGKPHKLRLYSIASSALGDFGDAKSVSLCVKRLIYTNDAGETIKGVCSNFLCDLKPGAEVKLTGPVGKEMLMPKDPNATIIMLGTGTGIAPFRSFLWKMFFEKHDDYKFNGLAWLFLGVPTSSSLLYKEEFEKMKEKAPDNFRLDFAVSREQTNEKGEKMYIQTRMAQYAVELWEMLKKDNTYFYMCGLKGMEKGIDDIMVSLAAAEGIDWIEYKRQLKKAEQWNVEVY
N-demethylase activity [2]: Ndm did not couple with ferredoxin reductase plus ferredoxin from spinach

B3: His6-NdmD (protein)
chain: HHHHHHSSGLVPRGSHMNKLDVNQWFPIATTEDLPKRHVFHATLLGQEMAIWRDDSGSVNAWENRCPHRGLNTLGANTGNELRCQYHGWTYESGTGGCTFVPAHRDAPPPNAARVNTFPVREKHGFIWTTLGQPPGEPISILDDAQLVNAVKTNLHSVVIDADIDGVVSVLRQNLSAFIDVFGAASAEDLHLKSMLQDRGILVTRSGSIAIHFYMQRSTISKCVVHAQVLTPGRPGYELQKNYSYAMNVIRRAAEAVATDLISITDISDQTIEKLEVVRENMTKAPPTHYICEVVTRTQETGDINSYWLKPIGYPLPAFSPGMHISITTPEGSIRQYSLVNGPDERESFIIGVKKEIGSRGGSRSMHEDVKVGTQLKVTLPRNGFPLVQTRKHPILVAGGIGITPILCMAGALDQQGSSYEIHYFARAFEHVPFQDRLTALGDRLNVHLGLGPDETRAKLPDIMEIHNAQDVDVYTCGPQPMIETVSAVALAHGIAEESIRFEFFSKKNDVPVSDEEYEVELKKTGQIFTVSPGSTLLQACLDNDVRIEASCEQGVCGTCITPVVSGDLEHHDTYLSKKERESGKWIMPCVSRCKSKKIVLDL
N-demethylation of caffeine to theobromine (HPLC) (NdmA-His6, H9N289): when NdmA-His6 was incubated with His6-NdmD, caffeine, NADH, and exogenous Fe^2+, caffeine was stoichiometrically demethylated at N1 to theobromine | N-demethylation of theobromine to 7-methylxanthine (HPLC) (NdmB-His6, H9N290): NdmB-His6 with His6-NdmD, theobromine, NADH, and Fe^2+ resulted in stoichiometric demethylation at N3 of theobromine to 7-methylxanthine
